# Measured values from the RNAGym collection of RNA variant scans (doi:10.1073/pnas.2313332121).
# B1: TPR t1 (parent)
# chain: GACCAAUCUGCCCUCAGAGCUCGAGAACAUCUUCGGAUGCAGAGGAGGCAGGCUUCGGUGGCGCGAUAGCGCCAACGUCCUCAACCUCCAAUGCAUCCCACCACAUGAUGAUGCCUGAAGAGCCUUGGUUUUUUG
# Variants of: B1
# Experiment: polymerase ribozyme fitness, log enrichment relative to wild type (log ratio); higher = more active; in vitro selection for triplet polymerase activity
# Outline: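 Fitness compares each genotype's enrichment to that of the wild type on a logarithmic scale, averaging replicates with inverse-variance weights. The logarithm is base 2. Enrichment came from Illumina sequencing of input and output libraries after one triplicate round of in vitro selection, which included frozen incubation at −7 °C, of PCR-built, transcribed mutant libraries of each subunit of a heterodimeric triplet polymerase ribozyme. Only genotypes with ≥10 input reads and ≥1 read per output were kept.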
row,Variant,polymerase ribozyme fitness (log ratio)
1,C13A C49G G122U C124G,-0.569
2,C13G A50C C53G U96G,-3.94
3,C13G A29U C34A G61U A111U U133C,-1.41
4,C13A C72G,-1.85
5,C13A C72A,-2.25
6,C13A A16U U116G,-1.13
7,C13A A46C C124G,0.675
8,C13G C53A C82A,-2.24
9,C13G C40A,-0.524
10,C13A G71U A119G,-1.25
11,C13A U78C,-1.78
12,C13G C70U,-1.62
13,C13A A43G G110A C124G G128A,-6.67
14,C13A G44C,-1.83
15,C13A G44A,-2.95
16,C13A C82A C94U G110A,-3.09
17,C13A C72U U92C U133A,-3.18
18,C12U G52A U78A,-0.0318
19,C13A U21A A29U,-4.11
20,C13A A26G C53U C104U,-5.09
21,C13A C56G C73U G77U,-1.96
22,C13A C79G C123A U129G,-3.45
23,C13G A18U A27G C53U C70U C89A C104U,-5.81
24,C13A A50C G52U G93C,-4.43

row,Variant,polymerase ribozyme fitness (log ratio)
1,C12U G47U,-0.627
2,C13A A46U U106C,-2.81
3,C13A A43G,-3.45
4,C13G A41U,-3.04
5,C13G C56U C86U U130A,-3.33
6,C13A C124A,0.0418
7,C12U G61A C73A C88A,-1.6
8,C13G A43U C76U,-1.01
9,C13G C15U C40U G117U G120A,-2.61
10,C12U G71C C97U,-0.967
11,C13A G17C C72U C88U A121G,-2.21
12,C12U G47U G120U,0.786
13,C12U G71A U92G U96A,-5.06
14,C12U U81G,-2.24
15,C12U U38C G71U C101G,-2.11
16,C13A G52A C53U A75U U81G G120U C124U G127U,-1.17
17,C13G A16G U21A A29C A43U G69U C82G C114U,-4.09
18,C13A C53G C70U,-2.31
19,C13G C49A C72U C88A,-2.56
20,C13G C72G C102G G113A G128A,-5.75
21,C13A C53U C114U G120A,-3.61
22,C13A C40A C79U,-2.13
23,C13G C56U C85A,-3.69
24,C13G A37G C53G G110U G113A,-5

row,Variant,polymerase ribozyme fitness (log ratio)
1,C13A U21C A50U C98U U106A C115U,-6.68
2,C12U G57A G63A G113C,-5.3
3,C12U G57A G113C,-2.33
4,C13G C15A A29G C64A C82A C104G U109G U131A,-5.2
5,C12U G44C C102U,-2.5
6,C12U U78G U96A G120U U131A,-0.178
7,C13A C20U,-3.77
8,C13A C62U,-2.18
9,C13A G19A G113U,-3.81
10,C13A A105U,-3.91
11,C13G C62U G113A,-2.67
12,C13A C40A G71A,-4.02
13,C13A C53U G120U,-1.1
14,C13G C70U U112G,-2.26
15,C13A C94U,-2.74
16,C13A C94A,-2.07
17,C13A U32A C53G,-6.04
18,C13G C40A G63A,-4.13
19,C13G C34A G39A,-5
20,C12U G77C U81G,-1.21
21,C13A A27U,-3.33
22,C13A A27C,-3.81
23,C13G C73A U81G A121G,-1.23
24,C13G C62G,-3.43

row,Variant,polymerase ribozyme fitness (log ratio)
1,C13G C62A,-1.11
2,C13A G17U,-4.98
3,C13A C40U C62A C123G,-0.545
4,C13A A91C U96C,-2.79
5,C13A C76U C82A A103U G110C C114A G117C C123U,-7
6,C13A C53U C56U U59G,-2.18
7,C12U G47U G63A U129A,-3.16
8,C13A G52U C53U,-3.61
9,C12U G45U C82G C97G,-5.36
10,C13A G39U G69U U109A,-5.33
11,C12U G61A U92A U126A,-4.38
12,C13A A83G A121U C123U,0.492
13,C12U G51A,-2.09
14,C12U G47A U87C,-0.382
15,C13G A74U,-2.54
16,C13G A121U,0.0945
17,C13G C56G C72G C88A G110C,-6.47
18,C13A U32C C49U G61A G77C U92C,-3.43
19,C13G C82A G128C,-3.69
20,C13A G110A,-1.4
21,C13A G52U U55C,-2.87
22,C13A G52U U54C C70U C124U,-1.03
23,C13A G63A C72U G127C,-3.45
24,C12U G48A,-0.765

row,Variant,polymerase ribozyme fitness (log ratio)
1,C13A C79A,-3.23
2,C13A C102A,-3.7
3,C13A A43G C70G U116C G117U,-6.51
4,C13A C101A,-2.54
5,C13G C72G C85A,-3.33
6,C13A U14A U54A,-2.73
7,C13A C20U C40U C72A A83C G117U C124A,-4.4
8,C13G C62G U87C A121C,-3.3
9,C12U U109G,-3.6
10,C13G A27U G47U G63A U78A,-6.63
11,C12U U30C G61U,-3.15
12,C12U U38C G42U G61A U96A G122U,-4.37
13,C13G A84C C102U,-2.71
14,C13G C40U C49A,-2.42
15,C13G A29G G42A G117U,-6.21
16,C13G C102A,-3.6
17,C13A U112A G120C,-0.261
18,C12U G47U C85G A111C,-2.51
19,C13A C15G U106A,-3.48
20,C13A U21C C62G,-2.82
21,C13G C79A C86A,-5.8
22,C13G A105U U112C,-2.47
23,C13A G44C U116G C124G,-2.72
24,C13G A111G C115U,-4.46

row,Variant,polymerase ribozyme fitness (log ratio)
1,C12U G45U C70G U132C,-6.34
2,C13A C88G,-3.12
3,C12U G117A G127C,-0.67
4,C13A A66C C123A,-2.16
5,C13A G36C C53G A95C,-4.38
6,C13A G42U,-3.39
7,C13A A16G U133G,-2.57
8,C12U U96A,-0.734
9,C12U U96G,-0.215
10,C13A C70G G93A C104A G110C,-6.34
11,C13A A18C G36A G42U A84C,-4.45
12,C13A A37C C73U A118U,-1.72
13,C12U U21A C40G C89G A121G,-1.38
14,C13G A41G G48U U78G A91C,-5.06
15,C13A U14C A16C C115A A119G,-2
16,C12U G45A A95C U109G G117C A118G,-5.62
17,C13G C64U C73A G120A A121U,-0.317
18,C12U G44U U55C,-0.924
19,C13A U38G G58U,-2.03
20,C13A C70U C114G,-6.69
21,C12U U112A C115A,1.79
22,C13G A50U U87C,-3.31
23,C13G C22U,-3.6
24,C13A C28G A46G G110C U125C,-0.574

row,Variant,polymerase ribozyme fitness (log ratio)
1,C13A G60U C86U,-2.73
2,C13G A119G,-0.865
3,C13G C99U,-4.01
4,C13A A16U,-0.236
5,C12U U87C A103U G120A,-1.81
6,C13G A90G,-1.86
7,C13G A46C U78C C86A,-4.39
8,C13G C72G C123U G135U,-0.121
9,C12U G61U C62U G113A,-4.94
10,C13A G93U C98U,-4.03
11,C12U G47U A119C C123A,-2.6
12,C13A C64U C115A,-2.72
13,C13G A37U G42C C53U G77A A121G U130A,-1.06
14,C12U U54G U55A G61A G110A A118C U129A,-6.68
15,C12U G113C G120U,-3.12
16,C13G A37G G117C,-4.68
17,C13A U21A G47U U109A,-5.74
18,C13A C15U G51A C94U,-5.17
19,C12U G61A,0.126
20,C13A A108G,-5.35
21,C13A A95G U109A,-6.28
22,C12U U125A U126C,-0.829
23,C13A A26C C56A G60U C88U G113U C115U,-6.95
